# Reference: PMC10399710, “The invariant chain CD74 protein is a cell surface binding partner of TIMP‐1 in breast cancer cells” (Molecular Oncology, 2023)
# T1: MHC class II‐associated invariant chain γ (CD74), endogenous in MDA‐MB‐231 cells (human (endogenous in MDA‐MB‐231), UniProt P04233 1-296)
# T1 sequence (looked up): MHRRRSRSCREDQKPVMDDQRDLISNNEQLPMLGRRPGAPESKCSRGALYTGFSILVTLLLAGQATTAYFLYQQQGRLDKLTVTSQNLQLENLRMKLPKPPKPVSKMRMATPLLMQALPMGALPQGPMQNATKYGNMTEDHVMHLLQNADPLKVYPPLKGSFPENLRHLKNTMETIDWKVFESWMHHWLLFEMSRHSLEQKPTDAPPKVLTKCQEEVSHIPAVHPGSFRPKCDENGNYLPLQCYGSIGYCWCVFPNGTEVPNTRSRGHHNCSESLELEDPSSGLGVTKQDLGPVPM
# B1: his6‐tagged human recombinant TIMP‐1 protein (rTIMP‐1) (natural protein)
# chain: not shown
# modifications: extensively glycosylated
# Molecular target: T1, MHC class II‐associated invariant chain …
# Experiment: cell-based or functional assay
binder,measurement,value
B1,"P‐Akt (Ser473)/Akt ratio in MDA‐MB‐231 cells after 10 and 30 min of rTIMP‐1, normalised to 0 min (western blot)",2.3 P‐Akt/Akt ratio normalised to the 0 min sample
